B1: insulin-Fc fusion protein of SEQ ID NO: 52 (Fc fusion)
chain: FVNQHLCGSDLVEALALVCGERGFFYTDPTGGGPRRGIVEQCCHSICSLYQLENYCNGGGGAGGGGDCPKCPAPEMLGGPSVFIFPPKPKDTLLIARTPEVTCVVVDLDPEDPEVQISWFVDGKQMQTAKTQPREEQFNGTYRVVSVLPIGHQDWLKGKQFTCKVNNKALPSPIERTISKARGQAHQPSVYVLPPSREELSKNTVSLTCLIKDFFPPDIDVEWQSNGQQEPESKYRTTPPQLDEDGSYFLYSKLSVDKSRWQRGDTFICAVMHEALHNHYTQESLSHSPG
notes: Homodimer; HEK293, Protein A
B2: insulin-Fc fusion protein of SEQ ID NO: 64 (Fc fusion)
chain: B1 chain with N139K
notes: homodimer; also called cNg-K; cNg-NB139-K
B3: insulin-Fc fusion protein of SEQ ID NO: 36 (Fc fusion)
chain: FVNQHLCGSHLVEALALVCGERGFHYGGGGGGSGGGGGIVEQCCTSTCSLDQLENYCGGGGGQGGGGQGGGGQGGGGGDCPKCPAPEMLGGPSVFIFPPKPKDTLLIARTPEVTCVVVDLDPEDPEVQISWFVDGKQMQTAKTQPREEQFSGTYRVVSVLPIGHQDWLKGKQFTCKVNNKALPSPIERTISKARGQAHQPSVYVLPPSREELSKNTVSLTCLIKDFFPPDIDVEWQSNGQQEPESKYRTTPPQLDEDGSYFLYSKLSVDKSRWQRGDTFICAVMHEALHNHYTQESLSHSPG
notes: homodimer; also called cNg-S and B16A
B4: insulin-Fc fusion protein of SEQ ID NO: 104 (Fc fusion)
chain: B3 chain with A16E
notes: 71% homodimer; also called cNg-NB151-S
B5: insulin-Fc fusion protein of SEQ ID NO: 102 (Fc fusion)
chain: B3 chain with A16E, D119A
notes: 73% homodimer; also called cNg-NB151-S, NB119-A
B6: insulin-Fc fusion protein of SEQ ID NO: 96 (Fc fusion)
chain: FVNQHLCGSHLVEALELVCGERGFHYGGGGGGSGGGGGIVEQCCTSTCSLDQLENYCGGGGGQGGGGQGGGGQGGGGGRCTDTPPCPVPEPLGGPSVLIFPPKPKDILRITRTPEVTCVVLDLGREDPEVQISWFVDGKEVHTAKTQSREQQFNGTYRVVSVLPIEHQDWLTGKEFKCRVNHIDLPSPIERTISKARGRAHKPSVYVLPPSPKELSSSDTVSITCLIKDFYPPDIDVEWQSNGQQEPERKHRMTPPQLDEDGSYFLYSKLSVDKSRWQQGDPFTCAVMHETLQNHYTDLSLSHSPG
notes: purified on Protein A or Protein G
B7: insulin-Fc fusion protein of SEQ ID NO: 114 (Fc fusion)
chain: FVNQHLCGSHLVEALALVCGERGFFYTDPAGGGPRRGIVEQCCASVCSLYQLEHYCGGGGAGGGGGEGPKCPVPEIPGAPSVFIFPPKPKDTLSISRTPEVTCLVVDLGPDDSNVQITWFVDNTEMHTAKTRPREEQFNSTYRVVSVLPILHQDWLKGKEFKCKVNSKSLPSAMERTISKAKGQPHEPQVYVLPPTQEELSENKVSVTCLIKGFHPPDIAVEWEITGQPEPENNYQTTPPQLDSDGTYFLYSRLSVDRSHWQRGNTYTCSVSHEALHSHHTQKSLTQSP
notes: homodimer
B8: insulin-Fc fusion protein of SEQ ID NO: 116 (Fc fusion)
chain: FVNQHLCGSHLVEALALVCGERGFFYTDPAGGGPRRGIVEQCCASVCSLYQLEHYCGGGGAGGGGGEGPKCPVPEIPGAPSVFIFPPKPKDTLSISRTPEVTCLVVDLGPDDSNVQITWFVDNTEMHTAKTRPREEQFSSTYRVVSVLPILHQDWLKGKEFKCKVNSKSLPSAMERTISKAKGQPHEPQVYVLPPTQEELSENKVSVTCLIKGFHPPDIAVEWEITGQPEPENNYQTTPPQLDSDGTYFLYSRLSVDRSHWQRGNTYTCSVSHEALHSHHTQKSLTQSPG
notes: homodimer
B9: insulin-Fc fusion protein of SEQ ID NO: 118 (Fc fusion)
chain: FVNQHLCGSHLVEALALVCGERGFFYTDPAGGGPRRGIVEQCCASVCSLYQLEHYCGGGGAGGGGDCPKCPPPEMLGGPSIFIFPPKPKDTLSISRTPEVTCLVVALGPDDSDVQITWFVDNTQVYTAKTSPREEQFSSTYRVVSVLPILHQDWLKGKEFKCKVNSKSLPSPIERTISKDKGQPHEPQVYVLPPAQEELSRNKVSVTCLIEGFYPSDIAVEWEITGQPEPENNYRTTPPQLDSDGTYFLYSRLSVDRSRWQRGNTYTCSVSHEALHSHHTQKSLTQSPG
notes: homodimer
B10: insulin-Fc fusion protein of SEQ ID NO: 56 (Fc fusion)
chain: FVNQHLCGSDLVEALALVCGERGFFYTDPTGGGPRRGIVEQCCHSICSLYQLENYCNGGGGAGGGGCISPCPVPESLGGPSVFIFPPKPKDILRITRTPEITCVVLDLGREDPEVQISWFVDGKEVHTAKTQPREQQFNSTYRVVSVLPIEHQDWLTGKEFKCRVNHIGLPSPIERTISKARGQAHQPSVYVLPPSPKELSSSDTVTLTCLIKDFFPPEIDVEWQSNGQPEPESKYHTTAPQLDEDGSYFLYSKLSVDKSRWQQGDTFTCAVMHEALQNHYTDLSLSHSPG
notes: only 12% homodimer (aggregated)

Numbering of substitutions follows the chain as printed. Names may count otherwise. Where only a bound is given, the exact number is not on record here.

The target in the first experiment is T1, biotinylated recombinant human Fc(gamma) receptor I (human, UniProt P12314 16-288, biotinylated (site not stated)).
T1 construct: Bought reagent, used as surrogate for canine/feline Fc(gamma)RI; also called rhFc(gamma) receptor I; Fc(gamma)RI
T1 sequence (P12314 16-288 limits assumed): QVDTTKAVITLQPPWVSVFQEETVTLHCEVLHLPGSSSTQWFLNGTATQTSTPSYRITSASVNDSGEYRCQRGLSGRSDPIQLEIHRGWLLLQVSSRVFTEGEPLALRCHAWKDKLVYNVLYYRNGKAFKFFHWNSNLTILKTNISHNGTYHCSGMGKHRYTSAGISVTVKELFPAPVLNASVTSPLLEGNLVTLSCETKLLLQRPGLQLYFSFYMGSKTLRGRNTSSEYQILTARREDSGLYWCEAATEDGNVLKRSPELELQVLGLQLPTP
The experiment can be described thus: ELISA, fusion protein coated, biotinylated rhFc(gamma)RI in solution, pH 7.4. On the procedure: (§1) The binding of insulin-Fc fusion proteins to the Fc(gamma) receptor I at pH 7.4 was conducted using an ELISA assay as follows. Since neither canine nor feline Fc(gamma) receptor I was not commercially available, human Fc(gamma) receptor I (i.e., rhFc(gamma) receptor I) was used as a surrogate mammalian receptor. Insulin-Fc compounds were diluted to 10 μg/mL in sodium bicarbonate buffer at pH 9.6 and coated on Maxisorp (Nunc) microtiter plates overnight at 4° C., after which the microplate strips were washed 5 times with PBST (PBS/0.05% Tween-20) buffer and blocked with Superblock blocking reagent (ThermoFisher). Serial dilutions of biotinylated rhFc(gamma) receptor I (recombinant human Fc(gamma)R-I; R&D Systems) were prepared in PBST/10% Superblock buffer from 6000 ng/mL to 8.2 ng/mL and loaded at 100 μL/well onto the microplate strips coated with insulin-Fc fusion protein. The microtiter plate was incubated for 1 hour at room temperature after which the microplate strips were washed 5 times with PBST and then loaded with 100 μL/well of streptavidin-HRP diluted 1:10000 in PBST/10% Superblock buffer. After incubating for 45 min, the microplate strips were washed again 5 times with PBST. TMB was added to reveal the bound Fc(gamma) receptor I proteins and stopped with ELISA stop reagent (Boston Bioproducts). The plate was read in an ELISA plate reader at 450 nm, and the OD values (proportional to the binding of rhFc(gamma) receptor I to insulin-Fc protein) were plotted against log concentrations of rhFc(gamma) receptor I added to each well to generate binding curves using GraphPad Prism software.
Low Fc(gamma) receptor binding is most likely to correlate with minimum immunogenicity.
Consider B1, for which the “OD450 nm Minus Assay Background” value was 0.323 OD450 and the “Ratio to SEQ ID NO: 52” value is 1 ratio.

Consider B2, for which the “Ratio to SEQ ID NO: 52” value was found to be 0.2 ratio.

Another experiment addresses T1, biotinylated recombinant human …. Description: ELISA, fusion protein coated, biotinylated rhFc(gamma)RI at 3000 ng/mL, pH 7.4. On the procedure:
as §1
Finally, select compounds were tested for their likelihood to interact with the immune system by measuring their Fc(gamma) receptor binding activity according to the procedure of Example 8. Table 19 compares the Fc(gamma) receptor I binding of these insulin-Fc fusion proteins with the Fc(gamma) receptor binding of the insulin-Fc fusion protein of SEQ ID NO: 52.
In the case of B1, the “OD450 nm Minus Assay Background” value was found to be 0.371 OD450, the “OD450 nm at a Fc(gamma)RI concentration of 3000 (ng/mL)” value (“OD450 nm … (ng/mL)” below) turned out to be 0.428 OD450 and the “Ratio to SEQ ID NO: 52” value came to 1 ratio. For B3, the “OD450 nm … (ng/mL)” value came out at 0.177 OD450 and the “Ratio to SEQ ID NO: 52” value came to 0.32 ratio. On the same counts, the results for B4 are 0.175 OD450 and 0.32 ratio.

Turning to B5, the “OD450 nm … (ng/mL)” value stood at 0.166 OD450 and the “Ratio to SEQ ID NO: 52” value worked out at 0.29 ratio. On the same counts, the results for B6 are 0.253 OD450 and 0.53 ratio.

For another experiment, the target named is T2, human insulin receptor (human, UniProt P06213 28-1382).
T2 construct: whole, on cells; Endogenous receptor on IM-9 cells; also called IR
T2 sequence (P06213 28-1382): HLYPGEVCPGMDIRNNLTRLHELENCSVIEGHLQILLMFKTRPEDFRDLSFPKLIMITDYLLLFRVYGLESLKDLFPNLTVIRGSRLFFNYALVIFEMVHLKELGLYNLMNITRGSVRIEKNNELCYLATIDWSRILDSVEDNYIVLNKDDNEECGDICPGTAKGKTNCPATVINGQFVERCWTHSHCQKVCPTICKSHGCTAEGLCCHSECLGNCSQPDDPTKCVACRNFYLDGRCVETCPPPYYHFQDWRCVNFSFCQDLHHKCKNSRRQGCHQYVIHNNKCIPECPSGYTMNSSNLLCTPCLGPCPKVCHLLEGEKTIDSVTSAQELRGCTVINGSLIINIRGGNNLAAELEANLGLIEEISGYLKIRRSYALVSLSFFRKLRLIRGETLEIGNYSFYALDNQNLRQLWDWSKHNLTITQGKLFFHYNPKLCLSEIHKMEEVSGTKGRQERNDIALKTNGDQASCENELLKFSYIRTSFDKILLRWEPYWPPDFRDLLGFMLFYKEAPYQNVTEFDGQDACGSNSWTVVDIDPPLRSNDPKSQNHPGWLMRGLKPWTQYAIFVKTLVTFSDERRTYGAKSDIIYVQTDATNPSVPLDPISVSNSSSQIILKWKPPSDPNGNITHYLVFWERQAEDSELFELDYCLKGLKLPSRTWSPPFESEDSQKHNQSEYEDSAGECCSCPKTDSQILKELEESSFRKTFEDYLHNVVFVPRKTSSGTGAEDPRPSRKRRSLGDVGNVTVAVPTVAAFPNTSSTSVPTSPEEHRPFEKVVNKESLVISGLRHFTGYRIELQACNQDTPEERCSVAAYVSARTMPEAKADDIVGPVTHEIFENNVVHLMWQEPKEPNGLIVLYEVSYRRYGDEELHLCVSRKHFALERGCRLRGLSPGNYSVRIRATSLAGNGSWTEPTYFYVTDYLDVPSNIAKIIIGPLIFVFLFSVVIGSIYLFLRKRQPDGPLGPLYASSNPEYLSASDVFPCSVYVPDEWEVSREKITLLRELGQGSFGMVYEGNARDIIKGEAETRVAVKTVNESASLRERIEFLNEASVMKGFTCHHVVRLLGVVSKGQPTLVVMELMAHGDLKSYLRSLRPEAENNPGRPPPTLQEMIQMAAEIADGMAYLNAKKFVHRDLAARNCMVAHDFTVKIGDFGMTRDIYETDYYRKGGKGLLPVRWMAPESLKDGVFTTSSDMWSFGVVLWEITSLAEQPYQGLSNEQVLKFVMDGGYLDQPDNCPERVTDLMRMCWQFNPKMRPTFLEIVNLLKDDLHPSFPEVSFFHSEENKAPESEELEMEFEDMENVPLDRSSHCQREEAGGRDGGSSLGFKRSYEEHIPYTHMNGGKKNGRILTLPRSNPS
Description: competition with biotinylated RHI on IM-9 cells, flow cytometry, 4 C. Here is the method:
40 μL of an IM-9 cell suspension (8×10⁶ cells/mL) was then added to each well by multichannel pipette, mixed again gently and incubated on ice for 30 min to allow competitive binding on the insulin receptor on IM-9 cells. Cells were then washed twice with 275 μL of ice-cold FACS wash buffer (HBSS/2 mM EDTA/0.1% Na-azide+0.5% horse serum) by centrifuging the V-bottom plate at 3000 rpm for 3 min and aspirating the supernatant. Cells were then resuspended in 40 μL of FACS staining medium containing 1:100 diluted Streptavidin-PE (Life Technologies) for 20 min on ice. Cells were then washed once with 275 μL of ice-cold FACS buffer and finally fixed with 3% paraformaldehyde for 10 min at room temp. Cells were then washed once with 275 μL of ice-cold FACS buffer and resuspended in 250 μl of FACS buffer for analysis.
The V-bottom plates containing cells were then analyzed on a Guava 8-HT flow cytometer (Millipore). Biotinylated-RHI binding to insulin receptor was quantitated by the median fluorescence intensity (MFI) of the cells on the FACS FL-2 channel for each concentration of the test compound. Control wells were labeled only with biotinylated-RHI and were used to calculate the percent (%) inhibition resulting from each test compound concentration. The % inhibition by test compounds of biotinylated-RHI binding on IM-9 cells was plotted against log concentrations of the test compound, and the resulting IC50 values were calculated using GraphPad Prism (GraphPad Software, La Jolla, CA) for the test compounds. Lower IC50 values of the test compound therefore indicate greater levels of biotinylated-RHI inhibition at lower concentrations indicating stronger binding of the insulin-Fc fusion protein to the insulin receptor. A control compound, such as unlabeled recombinant human insulin (RHI) was also used as an internal standard to generate an RHI IC50 against which a given compound IC50 could be ratioed (IC50(compound)/IC50(RHI)). Lower IC50 ratios have more similar binding to RHI (stronger binding to insulin receptor), while higher IC50 ratios have weaker binding to the insulin receptor relative to RHI.
The molecule B1 showed an IC50 of 0.028 µM. Consider B7, for which the IC50 was 3.48 µM. On the same count and under the same terms, for B8 the value was 0.707 µM. In turn, B9 had an IC50 of over 5 µM. Same read-out and setting: as for B10, the figure is over 5 µM.
